In doi:10.1101/2023.08.23.554525 (bioRxiv, 2023):

What was measured:
Details in all cases: both partners purified
[1] = target: H1 hemagglutinin (A/New Caledonia/20/1999(H1N1)), recombinant HA trimer used for electron microscopy (influenza A virus A/New …, UniProt Q6WG00); experiment: cryo-EM structure
[2] = target: biotinylated H1 A/Michigan/45/2015 (MI15) HA ectodomain (Influenza A virus A/Michigan/45/2015 …, UniProt A0A1J0CXU0, strain, biotin (site not stated)); experiment: BLI; Octet Red384; […]; Fab at 1600, 400, 100 and 25 nM; PBS + 1% BSA; 180 s association, 300 s dissociation
[3] = target: T1, biotinylated H1 A/NewCaledonia/20/1999 (NC99) HA ectodomain (Influenza A virus A/New …, UniProt Q6WG00, strain, biotin (site not stated)); experiment: as above
[4] = target: T1, biotinylated H1 A/NewCaledonia/20/1999 …; experiment: […] (MSD) binding assay; […]

Binder | binding result [1] | binding result [2] | binding result [3] | binding result [4]
1-1-1F05 Fab (Fab, V domains shown, source: Expi293, transfected, IgG purified (Protein A); Fab by papain digestion, SEC) VH: QVQLQESGPGLVKPSATLSLTCTLSGGSLSTHYWSWIRQPPGKGLEYIGNIHYSGSTNYNPSLRSRVTISVGTSKNQFSLKLTSVTAADTAVYYCARDAPYSDFLSGVETGWFDPWGQGTLVIVSS VL: EIVMTQSPATLSVSPGERATLSCRASQSVSSNLAWYQQKPGQAPRLLIYGASTRATGIPARFSGSGSGTDFTLTISSLQSEDFAVYSCQQYNNWPWTFGQGTKVEIK | binds |  |  | 
1-1-1E04 Fab (Fab, V domains shown, Parent IgG1) VH: QVQLVQSGAQLRKPGSSVTVSCKASGDTFNSYSIHWVRQAPGQGLEWMGRIIPVFGMTHYAQRFRGRITVSADKSTRTAYMELTSLTSADTAMYYCARDGGDKFHSSGHFETNQGYFDHWGQGALVTVSS VL: QSVLTQPPSVSGAPGQRVTVSCTGSSSNLGATYEVHWYQQFPGTAPKLLIYGSTNRPSGVPERFSGSKSGTSASLTITGLQAEDEADYYCQSYDTSLRGFYVFGTGTKVTVL | binds |  |  | 
2-2-1G06 Fab (Fab, V domains shown) VH: QVQLRESGPGLVKPSQTLSLTCTVSGDSISNGGLYWNWIRQRPGRGLEWIGYIYYNGVTTYNPSLRSRIAISLETAKNQLSLRLSSVSAADTAIYYCAREGWVPDYGGRNYYLDFWGQGTLVTVSS VL: DIQMTQSPSSLSASVGDRVTITCRASHNIQNFLNWYQQKPGKAPKLLIYAASTLQSGVPSRFSGSGSRTDFTLTISSLQPEDFAAYYCQQSYGLPRTFGQGTRLEIK | binds | binds | binds | 
2-2-1G06 monoclonal antibody (IgG1) (antibody, V domains shown, IgG1; copies: 2 + 2) VH: QVQLRESGPGLVKPSQTLSLTCTVSGDSISNGGLYWNWIRQRPGRGLEWIGYIYYNGVTTYNPSLRSRIAISLETAKNQLSLRLSSVSAADTAIYYCAREGWVPDYGGRNYYLDFWGQGTLVTVSS VL: DIQMTQSPSSLSASVGDRVTITCRASHNIQNFLNWYQQKPGKAPKLLIYAASTLQSGVPSRFSGSGSRTDFTLTISSLQPEDFAAYYCQQSYGLPRTFGQGTRLEIK |  |  |  | binds
